In patent US20140377215A1:

Columns and labels:
Experiment in all cases: 1H-15N HSQC NMR titration of 15N-labeled CBD with mini-collagen
[1] = molecular target: [PROXYL-(POG)3POA(POG)6]3
[2] = molecular target: [PROXYL-(POG)4POA(POG)5]3
[3] = molecular target: [PROXYL-(POG)5POA(POG)4]3
[4] = molecular target: [PROXYL-(POG)6POA(POG)3]3

Measured: Kd

collagen-binding domain (CBD), s3b (Gly893-Lys1008) peptide derived from Clostridium histolyticum cl, sequence (Q9X721 1003-1118 limits assumed): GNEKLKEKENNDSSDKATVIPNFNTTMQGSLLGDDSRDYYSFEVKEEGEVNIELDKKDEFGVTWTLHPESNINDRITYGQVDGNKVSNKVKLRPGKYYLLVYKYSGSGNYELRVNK

collagen-binding domain (CBD), s3b (Gly893-Lys1008) peptide derived from Clostridium histolyticum cl (from UniProt Q9X721 1003-1118)
< 100 µM: all assays above
